Here are results for 1 molecule from patent CN113150127A.

In this experiment the target is HBV表面抗原蛋白 (HBsAg) (Hepatitis B virus). The experiment is described as follows: SPR (Biacore 3000), antibody captured through AHC on a CM5 chip, HBsAg as analyte from 40 nM to 0 nM in 2-fold dilutions. On the technique in general: SPR reads the build-up and loss of mass on a sensor chip optically.

B1: 抗HBsAg单克隆抗体5G7-2 (antibody, V domains shown)
VH: EVQLQQSGPELVKPGASVKIYCKASGYTFTNARSTWVKQSHGKSLEWIGWINFKINNDGSATPFKGKATLTVDKSSSTAYMELRSLTSEDSAVYYCSRAGRFKLMDWGQGTLVTVSA
VL: DIVMTQSPASLAMSLGKRATISCGGCARTPLLWICNGKWYQQKPGQPPKLLIYLASNKFGGVPARFSGSGSGADFTLTIDPVEGDDVALYYCQQDWNTIYTFGGGTKMEIK
As a reminder, the Kd is the constant that tells how readily two partners part at equilibrium. Read a high Kd as a looser complex. Molecule B1 yielded a Kd of 6.12 nM.
